In patent US20210206813:

Columns and labels:
[1] = target: p130cas substrate domain fused to the omega subunit of RNA polymerase
[2] = target: MidT substrate domain fused to the omega subunit of RNA polymerase

Protein | luminescence (LuxAB), bacterial two-hybrid system with induced Src [1] | luminescence (LuxAB), bacterial two-hybrid system with induced Src [2] | difference in luminescence between systems containing PTP1B or PTP1B (C215S) [2]
Src kinase (protein) MSKPQTQGLAKDAWEIPRESLRLEVKLGQGCFGEVWMGTWNGTTRVAIKTLKPGTMSPEAFLQEAQVMKKLRHEKLVQLYAVVSEEPIYIVTEYMSKGSLLDFLKGETGKYLRLPQLVDMAAQIASGMAYVERMNYVHRDLRAANILVGENLVCKVADFGLARLIEDNEYTARQGAKFPIKWTAPEAALYGRFTIKSDVWSFGILLTELTTKGRVPYPGMVNREVLDQVERGYRMPCPPECPESLHDLMCQCWRKEPEERPTFEYLQAFLEDYFTSTEPQYQPGENL | luminescence increased most prominently for p130cas and MidT | luminescence increased most prominently for p130cas and MidT | –
protein tyrosine phosphatase 1B (PTP1B) (protein) MEMEKEFEQIDKSGSWAAIYQDIRHEASDFPCRVAKLPKNKNRNRYRDVSPFDHSRIKLHQEDNDYINASLIKMEEAQRSYILTQGPLPNTCGHFWEMVWEQKSRGVVMLNRVMEKGSLKCAQYWPQKEEKEMIFEDTNLKLTLISEDIKSYYTVRQLELENLTTQETREILHFHYTTWPDFGVPESPASFLNFLFKVRESGSLSPEHGPVVVHSSAGIGRSGTFCLADTCLLLMDKRKDPSSVDIKKVLLEMRKFRMGLIQTADQLRFSYLAVIEGAKFIMGDSSVQDQWKELSHEDLEPPPEHIPPPPRPPKRILEPHN | – | – | The difference in luminescence between systems containing PTP1B or PTP1B (C215S) was greatest for MidT
